Where “and” joins values, the source holds several entries; their conditions need not be identical. Equal values may be shown once. Where no end group is shown, it is not given here. [ ]: non-standard residue; d: D form. Tyr(3-I) = N[C@@H](Cc1ccc(O)c(I)c1)C(=O)O; Nle = CCCC[C@H](N)C(=O)O
B1: ILNleRF-NH2 (peptide)
peptide: IL[Nle]RF-NH2
modifications: N-terminus assumed
SMILES: CCCC[C@H](NC(=O)[C@H](CC(C)C)NC(=O)[C@@H](N)[C@@H](C)CC)C(=O)N[C@@H](CCCNC(=N)N)C(=O)N[C@@H](Cc1ccccc1)C(N)=O
notes: Synthetic
B2: VLRF-NH2 (peptide)
peptide: VLRF-NH2
notes: also called C-terminal tetrapeptide VLRF-NH2
B3: 3-Iodo-Y-VPGVLRF-NH2 (peptide)
peptide: [Tyr(3-I)]VPGVLRF-NH2
modifications: N-terminus assumed
SMILES: CC(C)C[C@H](NC(=O)[C@@H](NC(=O)CNC(=O)[C@@H]1CCCN1C(=O)[C@@H](NC(=O)[C@@H](N)Cc1ccc(O)c(I)c1)C(C)C)C(C)C)C(=O)N[C@@H](CCCNC(=N)N)C(=O)N[C@@H](Cc1ccccc1)C(N)=O
notes: Synthetic
B4: 3-Iodo-Y-DVPGVLRF-NH2 (peptide)
peptide: [Tyr(3-I)]DVPGVLRF-NH2
modifications: also: 125I in the radiolabelled probe
notes: N-terminally iodo-Tyr-extended flp18 analog

Target: T1, CEGPCR4 (C. elegans)
T1 construct: Expressed in CHO cells
T1 chain: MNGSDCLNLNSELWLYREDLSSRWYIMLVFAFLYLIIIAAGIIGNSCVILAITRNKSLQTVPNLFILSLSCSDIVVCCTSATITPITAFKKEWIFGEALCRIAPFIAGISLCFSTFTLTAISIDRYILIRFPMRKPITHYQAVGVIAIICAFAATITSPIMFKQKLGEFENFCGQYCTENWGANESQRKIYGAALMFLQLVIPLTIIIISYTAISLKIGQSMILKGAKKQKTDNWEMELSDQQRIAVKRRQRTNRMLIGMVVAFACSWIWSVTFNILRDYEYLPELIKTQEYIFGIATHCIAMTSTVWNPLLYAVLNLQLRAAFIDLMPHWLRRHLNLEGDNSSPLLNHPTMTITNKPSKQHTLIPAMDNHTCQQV
Assay: competition binding assay, CEGPCR4/CHO membranes, vs [125I-Y]DVPGVLRF-NH2
Binder KPNFLRF-NH2 [KPNFLRF-NH2] has an IC50 of 60000 to 900000 nM.
B1 showed an IC50 of 60000 to 900000 nM.
With EIPGVLRF-NH2 [EIPGVLRF-NH2] the IC50 was 0.5 to 10 nM.
In the case of NGAPQPFVRF-NH2 [NGAPQPFVRF-NH2], the IC50 is reported as 50000 to 500000 nM.
DFDGAMPGVLRF-NH2 [DFDGAMPGVLRF-NH2] showed an IC50 of 0.5 to 10 nM.
In the case of EIVFHQISPIFFRF-NH2 [EIVFHQISPIFFRF-NH2], the IC50 is reported as 50000 to 500000 nM.
GVLRF-NH2 [GVLRF-NH2] gave an IC50 of 1 to 60 nM.
SPLGTMRF-NH2 [SPLGTMRF-NH2] gave an IC50 of 50000 to 500000 nM.
SAEPFGTMRF-NH2 [SAEPFGTMRF-NH2] showed an IC50 of 50000 to 500000 nM.
ASPSFIRF-NH2 [ASPSFIRF-NH2] showed an IC50 of 0.5 to 10 nM.
For DVPGVLRF-NH2 [DVPGVLRF-NH2], the IC50 was 0.5 to 10 nM and 1 to 60 nM.
Binder YVPGVLRF-NH2 (Synthetic) [Y-VPGVLRF-NH2] has an IC50 of 1 to 60 nM.
Work on B2 yielded an IC50 of roughly 400 nM.
With B3 the IC50 was 1 to 60 nM.
With PGVLRF-NH2 [PGVLRF-NH2] the IC50 was 1 to 60 nM.
YGVLRF-NH2 (Synthetic) [Y-GVLRF-NH2] was tested, and the IC50 was 1 to 60 nM.
For Ac-GVLRF-NH2 [Ac-GVLRF-NH2], the IC50 was 1 to 60 nM.
Ac-VPGVLRF-NH2 [Ac-VPGVLRF-NH2] gave an IC50 of 1 to 60 nM.
In the case of SDNFMRF-NH2 [SDNFMRF-NH2], the IC50 is reported as 50000 to 500000 nM.
Binder PDNFMRF-NH2 [PDNFMRF-NH2] has an IC50 of 50000 to 500000 nM.
B4 gave an IC50 of 1 to 60 nM.
Binder VPGVLRF-NH2 [VPGVLRF-NH2] has an IC50 of 1 to 60 nM.
YPGVLRF-NH2 (Synthetic) [Y-PGVLRF-NH2] was tested, and the IC50 was 1 to 60 nM.
Work on TNRNFLRF-NH2 [TNRNFLRF-NH2 (Lobster peptide II)] yielded an IC50 of 50000 to 500000 nM.
KSVPGVLRF-NH2 [KSVPGVLRF-NH2] showed an IC50 of 0.5 to 10 nM.
YDVPGVLRF-NH2 [Y-DVPGVLRF-NH2] showed an IC50 of 1 to 60 nM.

From patent publication US20050176069A1 (PHARMACIA AND UPJOHN, published 2005)
